According to US7488598B2, “Mutant purine nucleoside phosphorylase proteins and cellular delivery thereof” (priority 2001, dated 2009):
Values joined by “and” are separate entries in the source; they are usually repeats but may differ in a detail not shown here. Equal values may be shown once.

Experiments:
[1] = biological target: E. coli PNP mutant M65A (Escherichia coli, UniProt P0ABP8, M65A); settings: Example 16 analysis
[2] = E. coli PNP enzyme activity with substrate MeP-dR; settings: substrate MeP-dR; for Percent of Control Activity, MeP-dR: percent of wild-type activity; for Activity, MeP-dR: Table IV, 0 denotes no measurable activity
[3] = E. coli PNP enzyme activity with substrate F-araA; settings: percent of wild-type activity
[4] = E. coli PNP enzyme activity with substrate allo-acet; settings: Table IV, 0 denotes no measurable activity
[5] = E. coli PNP enzyme activity with substrate talo-acet; settings: Table IV, 0 denotes no measurable activity
[6] = E. coli PNP enzyme activity with substrate 5′-NH2; settings: Table IV, 0 denotes no measurable activity
[7] = E. coli PNP enzyme activity with substrate α-L-lyxo; settings: Table IV, 0 denotes no measurable activity

C#C[C@H](O)[C@H]1O[C@@H](n2cnc3c(C)ncnc32)[C@H](O)[C@@H]1O [9-(6,7-dideoxy-α-L-hept-6-ynofuranosyl)-6-methylpurine]
activity of mutant M65A compared with wild-type enzyme (in words) [1]: more activity

B1: M65I (protein, UniProt P0ABP8 2-239, looked up, variant M65I)
Purine nucleoside …: ATPHINAEMGDFADVVLMPGDPLRAKYIAETFLEDAREVNNVRGMLGFTGTYKGRKISVMGHGIGIPSCSIYTKELITDFGVKKIIRVGSCGAVLPHVKLRDVVIGMGACTDSKVNRIRFKDHDFAAIADFDMVRNAVDAAKALGIDARVGNLFSADLFYSPDGEMFDVMEKYGILGVEMEAAGIYGVAAEFGAKALTICTVSDHIRTHEQTTAAERQTTFNDMIKIALESVLLGDKE
Percent of Control Activity, MeP-dR [2]: 0.02%
Percent of Control Activity, F-araA [3]: 0.15%
Activity, allo-acet [4]: 0 nmol/mg/h
Activity, talo-acet [5]: 0 nmol/mg/h

B2: D205N (protein, UniProt P0ABP8 2-239, looked up, variant D205N)
Purine nucleoside …: ATPHINAEMGDFADVVLMPGDPLRAKYIAETFLEDAREVNNVRGMLGFTGTYKGRKISVMGHGMGIPSCSIYTKELITDFGVKKIIRVGSCGAVLPHVKLRDVVIGMGACTDSKVNRIRFKDHDFAAIADFDMVRNAVDAAKALGIDARVGNLFSADLFYSPDGEMFDVMEKYGILGVEMEAAGIYGVAAEFGAKALTICTVSNHIRTHEQTTAAERQTTFNDMIKIALESVLLGDKE
Percent of Control Activity, MeP-dR [2]: 2.2%
Percent of Control Activity, F-araA [3]: 2.4%

B3: M181E (protein, UniProt P0ABP8 2-239, looked up, variant M181E)
Purine nucleoside …: ATPHINAEMGDFADVVLMPGDPLRAKYIAETFLEDAREVNNVRGMLGFTGTYKGRKISVMGHGMGIPSCSIYTKELITDFGVKKIIRVGSCGAVLPHVKLRDVVIGMGACTDSKVNRIRFKDHDFAAIADFDMVRNAVDAAKALGIDARVGNLFSADLFYSPDGEMFDVMEKYGILGVEEEAAGIYGVAAEFGAKALTICTVSDHIRTHEQTTAAERQTTFNDMIKIALESVLLGDKE
Percent of Control Activity, MeP-dR [2]: 0.04%
Percent of Control Activity, F-araA [3]: 0.1%

B4: M181N (protein, UniProt P0ABP8 2-239, looked up, variant M181N)
Purine nucleoside …: ATPHINAEMGDFADVVLMPGDPLRAKYIAETFLEDAREVNNVRGMLGFTGTYKGRKISVMGHGMGIPSCSIYTKELITDFGVKKIIRVGSCGAVLPHVKLRDVVIGMGACTDSKVNRIRFKDHDFAAIADFDMVRNAVDAAKALGIDARVGNLFSADLFYSPDGEMFDVMEKYGILGVENEAAGIYGVAAEFGAKALTICTVSDHIRTHEQTTAAERQTTFNDMIKIALESVLLGDKE
Percent of Control Activity, MeP-dR [2]: 0.1%
Percent of Control Activity, F-araA [3]: 0.4%

B5: M181V (protein, UniProt P0ABP8 2-239, looked up, variant M181V)
Purine nucleoside …: ATPHINAEMGDFADVVLMPGDPLRAKYIAETFLEDAREVNNVRGMLGFTGTYKGRKISVMGHGMGIPSCSIYTKELITDFGVKKIIRVGSCGAVLPHVKLRDVVIGMGACTDSKVNRIRFKDHDFAAIADFDMVRNAVDAAKALGIDARVGNLFSADLFYSPDGEMFDVMEKYGILGVEVEAAGIYGVAAEFGAKALTICTVSDHIRTHEQTTAAERQTTFNDMIKIALESVLLGDKE
Percent of Control Activity, MeP-dR [2]: 0.02%
Percent of Control Activity, F-araA [3]: 0.07%

B6: M181A (protein, UniProt P0ABP8 2-239, looked up, variant M181A)
Purine nucleoside …: ATPHINAEMGDFADVVLMPGDPLRAKYIAETFLEDAREVNNVRGMLGFTGTYKGRKISVMGHGMGIPSCSIYTKELITDFGVKKIIRVGSCGAVLPHVKLRDVVIGMGACTDSKVNRIRFKDHDFAAIADFDMVRNAVDAAKALGIDARVGNLFSADLFYSPDGEMFDVMEKYGILGVEAEAAGIYGVAAEFGAKALTICTVSDHIRTHEQTTAAERQTTFNDMIKIALESVLLGDKE
Percent of Control Activity, MeP-dR [2]: 0.04%
Percent of Control Activity, F-araA [3]: 0.2%

B7: E182A (protein, UniProt P0ABP8 2-239, looked up, variant E182A)
Purine nucleoside …: ATPHINAEMGDFADVVLMPGDPLRAKYIAETFLEDAREVNNVRGMLGFTGTYKGRKISVMGHGMGIPSCSIYTKELITDFGVKKIIRVGSCGAVLPHVKLRDVVIGMGACTDSKVNRIRFKDHDFAAIADFDMVRNAVDAAKALGIDARVGNLFSADLFYSPDGEMFDVMEKYGILGVEMAAAGIYGVAAEFGAKALTICTVSDHIRTHEQTTAAERQTTFNDMIKIALESVLLGDKE
Percent of Control Activity, MeP-dR [2]: 0.5%
Percent of Control Activity, F-araA [3]: 0.9%

B8: E182Q (protein, UniProt P0ABP8 2-239, looked up, variant E182Q)
Purine nucleoside …: ATPHINAEMGDFADVVLMPGDPLRAKYIAETFLEDAREVNNVRGMLGFTGTYKGRKISVMGHGMGIPSCSIYTKELITDFGVKKIIRVGSCGAVLPHVKLRDVVIGMGACTDSKVNRIRFKDHDFAAIADFDMVRNAVDAAKALGIDARVGNLFSADLFYSPDGEMFDVMEKYGILGVEMQAAGIYGVAAEFGAKALTICTVSDHIRTHEQTTAAERQTTFNDMIKIALESVLLGDKE
Percent of Control Activity, MeP-dR [2]: 0.6%
Percent of Control Activity, F-araA [3]: 1.0%

B9: D205A (protein, UniProt P0ABP8 2-239, looked up, variant D205A)
Purine nucleoside …: ATPHINAEMGDFADVVLMPGDPLRAKYIAETFLEDAREVNNVRGMLGFTGTYKGRKISVMGHGMGIPSCSIYTKELITDFGVKKIIRVGSCGAVLPHVKLRDVVIGMGACTDSKVNRIRFKDHDFAAIADFDMVRNAVDAAKALGIDARVGNLFSADLFYSPDGEMFDVMEKYGILGVEMEAAGIYGVAAEFGAKALTICTVSAHIRTHEQTTAAERQTTFNDMIKIALESVLLGDKE
Percent of Control Activity, MeP-dR [2]: 1.0%
Percent of Control Activity, F-araA [3]: 1.1%

B10: E180T (protein, UniProt P0ABP8 2-239, looked up, variant E180T)
Purine nucleoside …: ATPHINAEMGDFADVVLMPGDPLRAKYIAETFLEDAREVNNVRGMLGFTGTYKGRKISVMGHGMGIPSCSIYTKELITDFGVKKIIRVGSCGAVLPHVKLRDVVIGMGACTDSKVNRIRFKDHDFAAIADFDMVRNAVDAAKALGIDARVGNLFSADLFYSPDGEMFDVMEKYGILGVTMEAAGIYGVAAEFGAKALTICTVSDHIRTHEQTTAAERQTTFNDMIKIALESVLLGDKE
Percent of Control Activity, MeP-dR [2]: 0.06%
Percent of Control Activity, F-araA [3]: 0.1%

B11: M181L (protein, UniProt P0ABP8 2-239, looked up, variant M181L)
Purine nucleoside …: ATPHINAEMGDFADVVLMPGDPLRAKYIAETFLEDAREVNNVRGMLGFTGTYKGRKISVMGHGMGIPSCSIYTKELITDFGVKKIIRVGSCGAVLPHVKLRDVVIGMGACTDSKVNRIRFKDHDFAAIADFDMVRNAVDAAKALGIDARVGNLFSADLFYSPDGEMFDVMEKYGILGVELEAAGIYGVAAEFGAKALTICTVSDHIRTHEQTTAAERQTTFNDMIKIALESVLLGDKE
Percent of Control Activity, MeP-dR [2]: 0.6%
Percent of Control Activity, F-araA [3]: 1.6%

B12: M65Q (protein, UniProt P0ABP8 2-239, looked up, variant M65Q)
Purine nucleoside …: ATPHINAEMGDFADVVLMPGDPLRAKYIAETFLEDAREVNNVRGMLGFTGTYKGRKISVMGHGQGIPSCSIYTKELITDFGVKKIIRVGSCGAVLPHVKLRDVVIGMGACTDSKVNRIRFKDHDFAAIADFDMVRNAVDAAKALGIDARVGNLFSADLFYSPDGEMFDVMEKYGILGVEMEAAGIYGVAAEFGAKALTICTVSDHIRTHEQTTAAERQTTFNDMIKIALESVLLGDKE
Activity, MeP-dR [2]: 6050 nmol/mg/h and 4210 nmol/mg/h
Percent of Control Activity, MeP-dR [2]: 0.6%
Percent of Control Activity, F-araA [3]: 1.0%
Activity, 5′-NH2 [6]: 26 nmol/mg/h and 42 nmol/mg/h
Activity, allo-acet [4]: 0 nmol/mg/h
Activity, talo-acet [5]: 0 nmol/mg/h

B13: H5N (protein, UniProt P0ABP8 2-239, looked up, variant H5N)
Purine nucleoside …: ATPNINAEMGDFADVVLMPGDPLRAKYIAETFLEDAREVNNVRGMLGFTGTYKGRKISVMGHGMGIPSCSIYTKELITDFGVKKIIRVGSCGAVLPHVKLRDVVIGMGACTDSKVNRIRFKDHDFAAIADFDMVRNAVDAAKALGIDARVGNLFSADLFYSPDGEMFDVMEKYGILGVEMEAAGIYGVAAEFGAKALTICTVSDHIRTHEQTTAAERQTTFNDMIKIALESVLLGDKE
Percent of Control Activity, MeP-dR [2]: 0.08%
Percent of Control Activity, F-araA [3]: 0.15%
Activity, α-L-lyxo [7]: 16 nmol/mg/h and 11 nmol/mg/h
Activity, allo-acet [4]: 0 nmol/mg/h
Activity, talo-acet [5]: 0 nmol/mg/h

B14: E182V (protein, UniProt P0ABP8 2-239, looked up, variant E182V)
Purine nucleoside …: ATPHINAEMGDFADVVLMPGDPLRAKYIAETFLEDAREVNNVRGMLGFTGTYKGRKISVMGHGMGIPSCSIYTKELITDFGVKKIIRVGSCGAVLPHVKLRDVVIGMGACTDSKVNRIRFKDHDFAAIADFDMVRNAVDAAKALGIDARVGNLFSADLFYSPDGEMFDVMEKYGILGVEMVAAGIYGVAAEFGAKALTICTVSDHIRTHEQTTAAERQTTFNDMIKIALESVLLGDKE
Percent of Control Activity, MeP-dR [2]: 0.3%
Percent of Control Activity, F-araA [3]: 0.6%

B15: M65A (protein, UniProt P0ABP8 2-239, looked up, variant M65A)
Purine nucleoside …: ATPHINAEMGDFADVVLMPGDPLRAKYIAETFLEDAREVNNVRGMLGFTGTYKGRKISVMGHGAGIPSCSIYTKELITDFGVKKIIRVGSCGAVLPHVKLRDVVIGMGACTDSKVNRIRFKDHDFAAIADFDMVRNAVDAAKALGIDARVGNLFSADLFYSPDGEMFDVMEKYGILGVEMEAAGIYGVAAEFGAKALTICTVSDHIRTHEQTTAAERQTTFNDMIKIALESVLLGDKE
Activity, MeP-dR [2]: 12,000 nmoles/mg/hour and 9,400 nmoles/mg/hour
Percent of Control Activity, MeP-dR [2]: 1.5%
Percent of Control Activity, F-araA [3]: 1.6%
Activity, α-L-lyxo [7]: 1,500 nmoles/mg/hour and 1,070 nmoles/mg/hour
Activity, allo-acet [4]: 0 nmol/mg/h

B16: E180S (protein, UniProt P0ABP8 2-239, looked up, variant E180S)
Purine nucleoside …: ATPHINAEMGDFADVVLMPGDPLRAKYIAETFLEDAREVNNVRGMLGFTGTYKGRKISVMGHGMGIPSCSIYTKELITDFGVKKIIRVGSCGAVLPHVKLRDVVIGMGACTDSKVNRIRFKDHDFAAIADFDMVRNAVDAAKALGIDARVGNLFSADLFYSPDGEMFDVMEKYGILGVSMEAAGIYGVAAEFGAKALTICTVSDHIRTHEQTTAAERQTTFNDMIKIALESVLLGDKE
Percent of Control Activity, MeP-dR [2]: 0.5%
Percent of Control Activity, F-araA [3]: 0.8%
